{"source": "patent US20060270591A1", "about": "“Androgen receptor coregulators” (priority 2002, published 2006)", "key": {"AR": {"test_system": "AR", "sequence (P10275 whole entry)": "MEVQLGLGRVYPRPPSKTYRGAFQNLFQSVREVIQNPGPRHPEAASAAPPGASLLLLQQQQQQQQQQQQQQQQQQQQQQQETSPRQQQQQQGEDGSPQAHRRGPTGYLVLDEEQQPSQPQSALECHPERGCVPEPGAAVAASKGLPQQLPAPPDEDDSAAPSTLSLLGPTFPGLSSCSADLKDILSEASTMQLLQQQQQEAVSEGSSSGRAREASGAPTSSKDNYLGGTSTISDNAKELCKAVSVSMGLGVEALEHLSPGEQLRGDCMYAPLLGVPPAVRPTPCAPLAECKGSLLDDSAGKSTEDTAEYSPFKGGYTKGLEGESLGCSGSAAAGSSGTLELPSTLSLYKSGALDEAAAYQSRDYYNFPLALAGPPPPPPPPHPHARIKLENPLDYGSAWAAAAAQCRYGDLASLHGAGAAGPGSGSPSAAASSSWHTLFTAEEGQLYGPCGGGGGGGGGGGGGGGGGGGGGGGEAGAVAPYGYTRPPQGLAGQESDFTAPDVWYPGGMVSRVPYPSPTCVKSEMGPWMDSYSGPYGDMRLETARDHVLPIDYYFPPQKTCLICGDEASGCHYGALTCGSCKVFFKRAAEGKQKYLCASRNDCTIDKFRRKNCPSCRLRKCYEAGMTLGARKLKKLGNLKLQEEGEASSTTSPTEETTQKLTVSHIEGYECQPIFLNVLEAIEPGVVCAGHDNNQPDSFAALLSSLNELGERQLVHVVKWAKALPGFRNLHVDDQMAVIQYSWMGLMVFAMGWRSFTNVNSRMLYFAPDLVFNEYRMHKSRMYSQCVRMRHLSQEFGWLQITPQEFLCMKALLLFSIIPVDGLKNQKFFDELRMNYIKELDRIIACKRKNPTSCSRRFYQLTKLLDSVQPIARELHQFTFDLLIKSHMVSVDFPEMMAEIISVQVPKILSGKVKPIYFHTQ", "assay": "AR transactivation assay, MMTV-CAT reporter, transient transfection (Example 1)", "type": "cell-based, human", "method": "Human prostate cancer DU145 or PC3 cells, or human lung carcinoma cells NCI H1299 were grown in Dulbecco's minimal essential medium (DMEM) containing penicillin (25 U/ml), streptomycin (25˜g/ml), and 5% fetal calf serum (FCS). One hour before transfection, the medium was changed to DMEM with 5% charcoal-stripped FCS. […] A β-galactosidase expression plasmid, pCMV-β-gal, was used as an internal control for transfection efficiency.\nThe medium was changed 24 hr posttransfection and the cells treated with either steroid hormones or hydroxyflutamide, and cultured for an additional 24 hr. Cells were harvested and assayed for CAT activity after the cell lysates were normalized by using β-galactosidaseas an internal control. Chloramphenicol acetyltransferase (CA) activity was visualized by PhosphorImager (Molecular Dynamics) and quantitated by ImageQuant software (Molecular Dynamics)."}, "GR": {"molecular_target": "T1, GR (Homo sapiens, UniProt P04150)", "T1 sequence (P04150 1-777)": "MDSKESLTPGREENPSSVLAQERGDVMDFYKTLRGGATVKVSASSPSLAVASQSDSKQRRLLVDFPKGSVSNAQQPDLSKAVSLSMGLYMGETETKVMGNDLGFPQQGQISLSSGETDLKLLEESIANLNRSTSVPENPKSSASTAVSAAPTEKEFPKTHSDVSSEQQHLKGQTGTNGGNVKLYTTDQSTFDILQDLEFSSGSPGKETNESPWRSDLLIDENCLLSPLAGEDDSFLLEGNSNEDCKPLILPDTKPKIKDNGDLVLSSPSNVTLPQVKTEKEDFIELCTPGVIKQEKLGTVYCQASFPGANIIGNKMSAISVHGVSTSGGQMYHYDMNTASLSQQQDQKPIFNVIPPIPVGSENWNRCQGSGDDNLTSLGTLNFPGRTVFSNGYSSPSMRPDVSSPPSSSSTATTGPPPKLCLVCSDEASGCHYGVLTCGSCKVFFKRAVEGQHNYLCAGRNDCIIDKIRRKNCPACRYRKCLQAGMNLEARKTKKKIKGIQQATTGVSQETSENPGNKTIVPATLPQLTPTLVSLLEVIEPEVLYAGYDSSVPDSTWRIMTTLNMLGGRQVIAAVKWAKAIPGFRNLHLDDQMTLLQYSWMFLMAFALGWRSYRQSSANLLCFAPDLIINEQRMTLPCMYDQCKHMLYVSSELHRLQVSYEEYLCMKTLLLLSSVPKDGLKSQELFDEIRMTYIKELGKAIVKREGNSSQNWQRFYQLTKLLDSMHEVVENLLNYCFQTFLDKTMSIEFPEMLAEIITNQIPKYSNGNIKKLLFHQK", "assay": "GR transactivation reporter gene assay (Example 2)", "type": "cell-based", "set-up": "expressed in transfected cells; host or cells: PC-3", "method": "12. […] PC-3 (A) or DU145 (B) cells were transfected with MMTV-CAT (2.5 μg), steroid receptor expression plasmid (AR, PR, or GR; 1.0 μg for PC-3 and 0.75 μg for DU145), and pSG5-C′-ARA54 (C′) or pSG5-mt-ARA54 (mt) (8.0 μg for PC-3 and 6.75 μg for DU145), with (for DU145) or without (for PC-3) pSG5-fl-ARA54 (2.25 μg). The total amount of DNA was adjusted to 12.5-13.25 μg with pSG5 for each transfection. […] The CAT activity is presented relative to that of vector alone with cognate ligand in each panel (black bars; set as 100%). Values represent the mean±SD of at least three determinations.\n394. The human prostate cancer cell lines, LNCaP, PC-3, and DU145, were maintained in Dulbecco's minimum essential medium (DMEM) containing 5% fetal calf serum (FCS). Transfections using the calcium phosphate precipitation method and chloramphenicol acetyltransferase (CAT) and luciferase (Luc) assays were performed as previously described (Miyamoto et al. (1998) Proc. Natl. Acad. Sci. U.S.A. 95, 7379-7384; Yeh et al. (1999) Endocrine 11, 195-202; Miyamoto et al. (1998) Proc. Natl. Acad. Sci. U.S.A. 95, 11083-11088). Briefly, 1-4×10^5 cells were plated on 35-mm or 60-mm dishes 24 h before adding the precipitation mix containing a CAT or Luc reporter gene and a β-galactosidase expression plasmid (pCMV-β-gal) as an internal control for normalization of transfection efficiency. The medium was changed to phenol-red-free DMEM with 5% charcoal-stripped FCS 1 h before transfection. In each experiment, the total amount of transfected DNA per dish was maintained as a constant by addition of empty expression vector (pSG5 or pVP16, as appropriate). […] The cells were then harvested and whole cell extracts were used for CAT or Luc assay. The CAT activity was quantitated with a PhosphorImager (Molecular Dynamics). The Luc assay was determined using a Dual-Luciferase Reporter Assay System (Promega) and luminometer."}}}
{"molecule": "ARA54: 54 kDa protein that interacts with AR in an androgen-dependent manner; AR coactivator (protein) MSSEDREAQEDELLALASIYDGDEFRKAESVQGGETRIYLDLPQNFKIFVSGNSNECLQNSGFEYTICFLPPLVLNFELPPDYPSSSPPSFTLSGKWLSPTQLSALCKHLDNLWEEHRGSVVLFAWMQFLKEETLAYLNIVSPFELKIGSQKKVQRRTAQASPNTELDFGGAAGSDVDQEEIVDERAVQDVESLSNLIQEILDFDQAQQIKCFNSKLFLCSICFCEKLGSECMYFLECRHVYCKACLKDYFEIQIRDGQVQCLNCPEPKCPSVATPGQVKELVEAELFARYDRLLLQSSLDLMADVVYCPRPCCQLPVMQEPGCTMGICSSCNFAFCTLCRLTYHGVSPCKVTAEKLMDLRNEYLQADEANKRLLDQRYGKRVIQKALEEMESKEWLEKNSKSCPCCGTPIEKLDGCNKMTCTGCMQYFCWICMGSLSRANPYKHFNDPGSPCFNRLFYAVDVDDDIWEDEVED", "values": [{"measurement": "enhancement of the transcription activity of AR", "setting": "AR; DU145 cells", "value": "up to 6 fold"}, {"measurement": "enhancement of wtAR transactivation by coexpression", "setting": "AR; wtAR, DHT 10^−10 to 10^−8 M", "value": "3-5 fold"}, {"measurement": "induction of GR transcription activity", "setting": "GR; DU145 cells, cotransfected with GR", "value": 1.6, "unit": "fold"}]}
{"molecule": "C′-ARA54: C-terminal region (amino acids 361-474) of ARA54 (protein, Homo sapien, C-terminal region (amino acids 361-474) of ARA54) RNEYLQADEANKRLLDQRYGKRVIQKALEEMESKEWLEKNSKSCPCCGTPIEKLDGCNKMTCTGCMQYFCWICMGSLSRANPYKHFNDPGSPCFNRLFYAVDVDDDIWEDEVED", "values": [{"measurement": "inhibition of AR-mediated transcription", "setting": "AR; H1299 cells, endogenous ARA54", "value": "up to 70%"}, {"measurement": "effect on fl-ARA54-induced GR transactivation", "setting": "GR; DU145 cells", "value": "little effect"}, {"measurement": "effect on GR transactivation", "setting": "GR; PC-3 cell line", "value": "only marginally repressed"}]}
